Assay results: patent publication US20130216544A1 (GEMOAB MONOCLONALS, published 2013)

Tests used:
[1] = target: T1, recombinant human La protein (rhLa), SEQ ID No. 1 with His tag (human, UniProt P05455 1-408); assay: method and form of the antigen not stated
T1 construct: Also used to decorate the surface of 3T3 and HEK 293T PSCA cells; also called rhLa protein; His 6hLa protein; not shown: His tag
T1 sequence: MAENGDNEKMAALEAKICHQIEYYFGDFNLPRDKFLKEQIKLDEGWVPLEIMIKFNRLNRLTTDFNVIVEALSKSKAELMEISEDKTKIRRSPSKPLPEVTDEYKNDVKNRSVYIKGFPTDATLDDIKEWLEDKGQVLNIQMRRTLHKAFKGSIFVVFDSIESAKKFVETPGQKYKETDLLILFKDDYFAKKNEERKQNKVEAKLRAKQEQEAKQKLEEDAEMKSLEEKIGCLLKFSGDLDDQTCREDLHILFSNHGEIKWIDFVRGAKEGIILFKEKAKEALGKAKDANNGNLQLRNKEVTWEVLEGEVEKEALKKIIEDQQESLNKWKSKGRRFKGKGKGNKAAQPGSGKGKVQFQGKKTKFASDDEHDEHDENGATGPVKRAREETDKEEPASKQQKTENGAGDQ

[2] = target: T2, bacterially produced recombinant murine La protein (rmLa) (murine, UniProt P32067 1-415); assay: immunoblot, bacterially produced rmLa
T2 construct: also called prokaryote-produced murine La protein
T2 sequence (looked up): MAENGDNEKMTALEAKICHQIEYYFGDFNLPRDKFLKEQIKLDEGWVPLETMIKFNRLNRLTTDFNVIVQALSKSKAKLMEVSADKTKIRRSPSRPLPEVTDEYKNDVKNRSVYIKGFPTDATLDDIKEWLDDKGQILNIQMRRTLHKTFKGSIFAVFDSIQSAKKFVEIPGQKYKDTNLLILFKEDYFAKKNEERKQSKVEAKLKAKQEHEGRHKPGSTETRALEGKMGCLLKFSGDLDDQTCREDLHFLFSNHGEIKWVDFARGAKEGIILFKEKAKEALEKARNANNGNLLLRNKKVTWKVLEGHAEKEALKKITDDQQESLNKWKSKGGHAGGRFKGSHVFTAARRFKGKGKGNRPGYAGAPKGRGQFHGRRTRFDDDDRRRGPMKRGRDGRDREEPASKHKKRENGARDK

[3] = target: T3, eukaryotic murine La protein (mLa) (murine, UniProt P32067 1-415); assay: immunoblot, 3T3 total extract
T3 construct: In total extracts or fixed cells; also called endogenous mLa protein; eukaryote-produced murine La protein
T3 sequence (looked up): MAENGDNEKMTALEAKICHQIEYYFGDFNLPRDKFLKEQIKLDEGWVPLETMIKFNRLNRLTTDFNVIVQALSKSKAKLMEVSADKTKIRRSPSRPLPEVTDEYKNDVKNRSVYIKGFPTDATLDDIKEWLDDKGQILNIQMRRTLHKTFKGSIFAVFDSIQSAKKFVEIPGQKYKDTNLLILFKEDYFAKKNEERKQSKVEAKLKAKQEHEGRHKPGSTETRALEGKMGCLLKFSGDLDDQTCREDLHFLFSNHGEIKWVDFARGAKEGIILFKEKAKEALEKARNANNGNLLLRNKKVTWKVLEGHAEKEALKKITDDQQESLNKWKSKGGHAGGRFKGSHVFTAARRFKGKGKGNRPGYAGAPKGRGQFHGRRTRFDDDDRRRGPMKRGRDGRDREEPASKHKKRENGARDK

| Binder | Kd [1] | binding result [2] | binding result [3] |
| --- | --- | --- | --- |
| anti-La monoclonal antibody 7B6 (antibody, V domains shown, Used as hybridoma supernatant or mAb; also called mAk 7B6; anti-La 7B6) VH: VKLQESGGGLVQPGRPMKLSCVASGFTFSDFWMNWVRQSPEKGLEWVAQIRNKPNNYETYYSDSLKGRFTISRDDSKSSVYLQMNNLRPEDMGIYYCTLGNSWFAYWGQGTLVTVS VL: DIVITQSPSSLAVSAGEKVTMSCRSSQSLLDSRTRKNYLAWYQQKPGQSPKLLIYWASTRESGVPDRFTGSGSGTDFTLTISNVQAEDLAVYYCKQSYNLPTFGGGTKLEI | ~0.1 nM |  |  |
| anti-La monoclonal antibody 5B9 (antibody, IgG2a, V domains shown, also called anti-La-5B9) VH: VQLEESGAELVKPGASVKLSCKASGYAFTHYYIYWIKQRPGQGLEWIGGVNPSNGGTHFNEKFKSKATLTVDKSSSTAYMQLSSLTSEDSAVYYCTRSEYDYGLGFAYWGQGTLVTVSA VL: IVLTQTTSSLAVSAGEKVTMSCKSSQSLLNSRTPKNYLAWYQQKPGQSPKLLIYWASTRKSGVPDRFTGSGSGTDFTLTISSVQAEDLAVYYCKQSYNLLTFGAGTKLELKR | ~0.1 nM |  |  |
| anti-La monoclonal antibody 24BG7 (antibody, IgG1, V domains shown) VH: QVQLQQSGAELARPGASVKLSCKASGYSLTNYGISWVKQRTGQGLEWIGEIYRGSGNSYYNEKFKGKASLTADKSSSTAYMQLSSLTSEDSAVYFCARGGLSFAYWGQGTLVTVSA VL: QIVLTQSPAIMSASPGEKVTMTCSASSSVTYMHWYQQKSGTSPKRWIYDTSKLASGVPARFSGSGSGTSYSLTISTMEAEDAATYYCQQWISNPPTFGGGTKLEIKR | ~0.1 nM |  |  |
| anti-La monoclonal antibody 22A (antibody, IgG1, V domains shown) VH: QVKLEESGPELVKPGAPVKISCKTSGYTFTNYYIYWVKQRPGQGLEWIGYIYPGNGGTAYNQKFKDKATLTADNPSNTAYMQLSSLTSEDSAVYLCARRGALGYYFDYWGQGTTLTVSS VL: QIVLTQSPAIMSASPGEKVTMTCSASSSVSYMYWYQQKSGTSPKRWIYDTSKLASGVPARFSGSGSGTSYSLTISSMEAEDAATYYCQQWSSNPQFGTGTKLEVKR | ~0.1 nM | no binding | no binding |
| anti-La monoclonal antibody 27E (antibody, IgG2b, V domains shown) VH: VQLQESGAELARPGASVKLSCKASGYSFRSYGINWVKQRTGQGLEWIGEIYPGSGTTFYNEKFRGKATLTADKSSSTAYMQLKSLTSEDSAVYFCARHGGYPFYFDYWGQGTTLTVSS VL: DIVMTQSPAIMSASPGEKVTISCSASSSVSYMYWYQQKPGSSPKPWIYRTSNLASGVPARFSGSGSGTSYSLTISSMEAEDAATYYCQQYHSYPRTFGGGTKLEIKR | ~0.1 nM | binds | binds |
| anti-La monoclonal antibody 312B (antibody, IgG1, V domains shown) VH: QVKLQESGAELMKPGSSVKFSCKAAGYTFTDYWIEWLKQRPGHGLEWIGEILPGSVSIKYNEKFKGKATFTADTSSNTAYMQLSSLTSEDSAVYYCARSRSIYDGYFYYWGQGTTLTVSS VL: DIVMTQSTASLSASVGETVTITCRASENIYTYLAWYQQKQGKSPQLLVYNAKTLAEGVPSRFSGSGSGTQFSLRINSLQPEDFGSYYCQHHYGTPYTFGGGTKLEIK | ~0.1 nM | binds | binds |
| anti-La monoclonal antibody 32A (antibody, IgG1, V domains shown) VH: VQLQQSGAELARPGASVKLSCKASGYTFTTYGLTWVKQRTGQGLEWIGEIFPGSGTTFYNEKFNDKATLTADKSSSTAYMQLTSLTSEDSAVYFCARYSNYPYYFDYWGQGTTLTVSS VL: QIVLTQSPTIMSASPGEKVTISCSASSSVSYMYWYQQKPGSSPKPWIYRTSNLASGVPDRFSGSGSGTSYSLTISSMEAEDAATYYCQQYHSYPRTFGGGTKLEIKR | ~0.1 nM | no binding | no binding |
| anti-La monoclonal antibody 2F9 (antibody, IgG1, V domains shown) VH: EVQLQESGPGILQPSQTLSLTCSFSGFSLSTSGMGVSWIRQPSGKGLEWLAHIYWDDDKGYNPSLKSRLTISKDTSRNQVFLKITSVDTADTATYYCARGDVEFDYWGQGTTLTVSS VL: DIVLTQSTASLAVSLGQRATISCRASESVDSYGNSFMHWYQQKPGQPPKLLIYRASNLESGIPARFSGSGSRTDFTLTINPVEADDVATYYCQQSNEDPPTFGSGTKLEIK |  | binds |  |
